In patent US20230183353A1 (ZYDUS LIFESCIENCES, published 2023):

Key:
[1] = biological target: T1, recombinant human neonatal Fc receptor (rhFcRn) (human, UniProt P55899 24-297; P61769 21-119); experiment: SPR (ProteOn XPR36), rhFcRn immobilised on GLC chip, pH 6.0, 25 C
T1 construct: Bought recombinant protein (Sino Biologics), immobilised on a GLC chip; also called Human FcRn; FcRn/FcGRT
Experimental: The kinetic constants for the binding of Fc variants to recombinant human neonatal Fc receptor (rhFcRn) were determined by Surface Plasmon Resonance-based measurement using the ProteOn™ XPR36 (Bio-Rad). The rhFcRn receptor (Sino Biologics) was immobilized on a GLC chip following manufacturer's instruction. 10 mM phosphate buffer saline (PBS) (10 mM phosphate buffer, pH 6.0, 150 mM NaCl, with 0.005% Tweet 20) was used as running buffer to carry out the kinetic measurements. […] Reactions were carried in PBS (pH 6.0, 0.005% surfactant P20) at 25° C. After each sample run, the chip surface was regenerated using two pulses of PBS (0.005% surfactant P20), pH 7.4, followed by one pulse of glycine buffer pH 1.5. The data, in the form of sensograms, was analysed using the data-fitting programs in the ProteOn™ system.

recombinant monkey FcRn = recombinant monkey FcRn (monkey); experiment: SPR (ProteOn XPR36), FcRn immobilised on GLC chip by amine coupling, pH 6.0, 25 C
Chain of recombinant monkey FcRn (monkey) (Q8SPV9 24-297, chain 1 of 2): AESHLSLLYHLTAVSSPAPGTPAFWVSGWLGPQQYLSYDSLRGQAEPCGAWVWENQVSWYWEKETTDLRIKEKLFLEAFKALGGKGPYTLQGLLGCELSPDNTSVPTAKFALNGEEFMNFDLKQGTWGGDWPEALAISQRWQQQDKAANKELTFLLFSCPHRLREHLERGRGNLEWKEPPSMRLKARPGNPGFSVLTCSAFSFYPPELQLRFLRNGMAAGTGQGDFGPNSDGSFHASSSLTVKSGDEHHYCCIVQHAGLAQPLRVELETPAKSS
Chain of recombinant monkey FcRn (monkey) (Q8SPW0 21-119, chain 2 of 2, further chain): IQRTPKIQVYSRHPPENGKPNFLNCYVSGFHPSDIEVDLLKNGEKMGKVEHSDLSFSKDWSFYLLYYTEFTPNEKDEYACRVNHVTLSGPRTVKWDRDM
Experimental: (§1) In this experiment, binding of the Fc variant of the current invention to FcRn of different species was determined by surface plasmon resonance-based measurement using the ProteOn™ XPR36 (Bio-Rad). […] Fc variant used to conduct this experiment was produced using CHO cell as an expression system. FcRn (of different species) was immobilized on a GLC sensor chip surface using a standard amine coupling chemistry, and essentially, following the manufacturers' instruction. 10 mM phosphate buffered saline (PBS) (10 mM phosphate buffer, pH 6.0, 150 mM NaCl, 0.005% Tween 20) was used as the running buffer to carry out the kinetic measurements. To measure the association rate constant (kassoc) and dissociation rate constant (kdissoc), five dilutions of Fc muteins were prepared in above mentioned running buffer and injected at a flow rate of 100 μL/min with an association time of 180 s and dissociation time of 600 s. All the reactions were carried at 25° C. After each sample run, the chip surface was regenerated using PBST, pH 7.4. The data, in the form of sensorgrams, was analyzed using the data-fitting programs in the ProteOn™ system.

[2] = biological target: T1, recombinant human neonatal Fc receptor …; experiment: as above
Experimental: as §1

recombinant mouse FcRn = recombinant mouse FcRn (mouse, UniProt Q61559 22-297); experiment: as above
Chain of recombinant mouse FcRn (Q61559 22-297): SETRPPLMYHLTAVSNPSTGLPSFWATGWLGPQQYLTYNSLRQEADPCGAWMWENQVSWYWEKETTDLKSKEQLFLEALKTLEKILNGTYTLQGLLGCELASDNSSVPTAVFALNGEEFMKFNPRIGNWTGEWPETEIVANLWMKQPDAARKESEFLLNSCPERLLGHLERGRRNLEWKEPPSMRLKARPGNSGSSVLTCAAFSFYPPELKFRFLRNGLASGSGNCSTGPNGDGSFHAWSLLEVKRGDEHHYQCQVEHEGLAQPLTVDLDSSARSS
Experimental: as §1

[3] = biological target: T2, recombinant human FcγRIIIa (Val) (human, UniProt P08637 17-208, limits assumed); experiment: SPR (ProteOn), receptor immobilised on GLC chip by amine coupling, pH 7.4, 25 C
T2 construct: Directly immobilised on a GLC chip by amine coupling; also called FcγRIIIa V158; CD16a
T2 sequence (P08637 17-208 F176V limits assumed): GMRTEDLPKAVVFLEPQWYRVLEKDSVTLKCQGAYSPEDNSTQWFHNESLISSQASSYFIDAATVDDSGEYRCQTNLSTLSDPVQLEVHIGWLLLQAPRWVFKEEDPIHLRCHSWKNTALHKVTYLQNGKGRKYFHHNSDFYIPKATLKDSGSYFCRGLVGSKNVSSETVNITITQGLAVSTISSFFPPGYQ
Experimental: (§2) In this experiment, the kinetic constants for the binding of Fc variant to recombinant Fc gamma receptors were determined by Surface Plasmon Resonance-based measurement using the ProteOn™ […] (Bio-Rad). […] All the recombinant human Fc receptors were directly immobilized on a GLC sensor chip surface using a standard amine coupling chemistry, and essentially, following the manufacturers' instruction. 10 mM phosphate buffered saline (PBS) (10 mM phosphate buffer, pH 7.4, 150 mM NaCl, with 0.005% Tween 20) was used as the running buffer to carry out the kinetic measurements for all the Fc receptor. To measure the association rate constant (kassoc) and dissociation rate constant (kdissoc), five dilutions of Fc variants were prepared in above mentioned running buffer and injected at a flow rate of 50 μL/min. Association time and dissociation time at each interaction is mentioned in table below. All the reactions were performed at 25° C. The data, in the form of sensorgrams, were analyzed using the data-fitting programs available with the ProteOn™ system.

[4] = biological target: T3, recombinant human FcγRIIIa (Phe) (human, UniProt P08637 17-208, limits assumed); experiment: as above
T3 construct: Directly immobilised on a GLC chip by amine coupling; also called FcγRIIIa F158; CD16a
T3 sequence (P08637 17-208 limits assumed): as the sequence (P08637 17-208 F176V limits assumed) above, with V160F counted along it
Experimental: as §2

T1 sequence (P55899 24-297 limits assumed, chain 1 of 2): as the sequence (Q8SPV9 24-297, chain 1 of 2) above, with D39N, Q44E, S99G, G189S, N190S, M217L, T269S counted along it
T1 sequence (P61769 21-119 limits assumed, chain 2 of 2): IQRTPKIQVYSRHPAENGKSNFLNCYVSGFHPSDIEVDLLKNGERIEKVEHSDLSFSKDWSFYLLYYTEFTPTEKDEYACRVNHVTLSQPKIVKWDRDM

B1: Fc variant F3-9 (SEQ ID No. 20; L432M/H433P/N434F) (other)
chain: DKTHTCPPCPAPELLGGPSVFLFPPKPKDTLMISRTPEVTCVVVDVSHEDPEVKFNWYVDGVEVHNAKTKPREEQYNSTYRVVSVLTVLHQDWLNGKEYKCKVSNKALPAPIEKTISKAKGQPREPQVYTLPPSRDELTKNQVSLTCLVKGFYPSDIAVEWESNGQPENNYKTTPPVLDSDGSFFLYSKLTVDKSRWQQGNVFSCSVMHEAMPFHYTQKSLSLSPGK
- Kd [1]: 3.63 nM

B2: Fc variant H11+A4 (SEQ ID No. 22; T307N/V308P/L309Y/H433R/N434W), Fc monomer (other)
chain: DKTHTCPPCPAPELLGGPSVFLFPPKPKDTLMISRTPEVTCVVVDVSHEDPEVKFNWYVDGVEVHNAKTKPREEQYNSTYRVVSVLNPYHQDWLNGKEYKCKVSNKALPAPIEKTISKAKGQPREPQVYTLPPSRDELTKNQVSLTCLVKGFYPSDIAVEWESNGQPENNYKTTPPVLDSDGSFFLYSKLTVDKSRWQQGNVFSCSVMHEALRWHYTQKSLSLSPGK
notes: also called 22b
- Kd (recombinant monkey FcRn): 0.801 nM
- Kd [2]: 0.791 nM
- Kd (recombinant mouse FcRn): 0.615 nM
- Kd [3]: 205 nM
- Kd [4]: 241 nM
- Kd [1]: 0.288 nM
